The results in this text go back to patent US20200353078A1 (AstraZeneca / MedImmune, published 2020).

Test [1] concerns the target T1, Human IL-33 Flag®His (human).
T1 chain: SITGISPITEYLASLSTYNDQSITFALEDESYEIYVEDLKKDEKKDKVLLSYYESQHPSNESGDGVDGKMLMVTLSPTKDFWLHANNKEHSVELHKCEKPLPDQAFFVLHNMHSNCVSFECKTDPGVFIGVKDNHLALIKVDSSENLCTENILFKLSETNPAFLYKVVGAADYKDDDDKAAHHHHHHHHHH
Nature of the test: cell-based or functional assay.

Test [2] has as its target T1, Human IL-33 Flag®His. Nature of the test: HTRF competition, IgG titrated against biotinylated human ST2-Fc. The method, then: (§1) The ability of anti-IL-33 antibodies to inhibit the binding of FLAG®-His tagged IL-33 to the ST2 receptor was assessed in a biochemical HTRF® (Homogeneous Time-Resolved Fluorescence, Cisbio International) competition assay, the principles of which are described above.
(§2) Activity of purified IgG preparations were determined by competing a dilution series of the purified IgG against biotinylated human or mouse ST2.Fc for binding to FLAG® His-tagged human, cynomolgus or mouse IL-33.
(§3) Purified or unpurified anti-IL-33 antibody samples were tested for inhibition of FLAG®-His tagged IL-33 binding ST2-Fc by adding 10 microlitres of each dilution of antibody test sample to a 384 well low volume assay plate (Costar 3676). Next, a solution containing 4 nM biotinylated human or mouse ST2-Fc and 20 nM streptavidin XL665 detection (Cisbio International, 611SAXLB) was prepared and 5 microlitres of the mix added to the assay plate. This was followed by the addition of 5 microlitres of a solution containing 1.2 nM FLAG®-His tagged human, cynomolgus or mouse IL-33 combined with 1.72 nM anti-FLAG® cryptate detection (Cisbio International, 61FG2KLB). All dilutions were performed in assay buffer comprised of Dulbeccos PBS (Invitrogen, 14190185) containing 0.8 M potassium fluoride (BDH 103444T) and 0.1% BSA (Sigma A9576). Assay plates were incubated for 2 hour at room temperature followed by 16 hour at 4° C. before reading time resolved fluorescence at 620 nm and 665 nm emission wavelengths using an EnVision plate reader (Perkin Elmer).

Test [3] concerns the target T2, Cynomolgus IL-33 Flag®His (cynomolgus monkey).
T2 construct: C-terminal FLAG 10xHis tag, E. coli; also called Mature Cynomolugus IL-33; cyno IL-33 FH
T2 chain: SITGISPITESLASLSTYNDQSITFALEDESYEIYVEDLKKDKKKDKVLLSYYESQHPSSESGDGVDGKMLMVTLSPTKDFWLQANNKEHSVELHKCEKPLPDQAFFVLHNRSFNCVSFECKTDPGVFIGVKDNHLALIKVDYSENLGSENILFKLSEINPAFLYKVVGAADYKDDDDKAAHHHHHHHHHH
The description is as above. As to the method:
as §1, §2, §3

Test [4] addresses T3, Human IL-33 (Axxora/Adipogen AG-40B-0038) (human, UniProt O95760 112-270, limits assumed).
T3 sequence (looked up): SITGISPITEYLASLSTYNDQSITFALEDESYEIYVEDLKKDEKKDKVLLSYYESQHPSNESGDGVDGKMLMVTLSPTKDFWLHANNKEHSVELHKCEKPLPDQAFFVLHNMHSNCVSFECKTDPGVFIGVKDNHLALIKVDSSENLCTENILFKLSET
Nature of the test: cell-based or functional assay.

Test [5] deals with T3, Human IL-33 (Axxora/Adipogen …). Nature of the test: cell-based or functional assay. This is another data set of the same source.
For test [6] the target is unchanged. In words: HTRF epitope competition: unlabelled IgG against DyLight labelled H338L293 for biotinylated human IL-33. Background: Time-resolved FRET reads energy transfer from a long-lived donor to a nearby acceptor.
For a further test, the target named is T4, 33_640237-2B IgG1.
T4 construct: IgG1
In words: HTRF: unlabelled test protein competes with biotinylated human IL33-01 for DyLight650 labelled 33_640237-2B IgG. As to the method: Human, cyno and mouse IL-33 FLAG® His (described in Example 1 and Table 21), Human IL-1 alpha and IL-1 beta (R&D Systems) (Table 21) or rat IL-33 (GenScript) were tested for inhibition of human IL-33 binding to DyLight650 labelled 33_640087-7B or DyLight650 labelled 33_640237-2B by adding 5 microlitres of each dilution of sample to a 384 well low volume assay plate (Costar, 3673). […] This was followed by the addition of 2.5 microlitres of a solution containing 0.12 nM biotinylated human IL-33-01 combined with 0.75 nM streptavidin cryptate detection (Cisbio International, 610SAKLB). All dilutions were performed in assay buffer containing 0.8 M potassium fluoride (VWR, 26820.236) and 0.1% bovine serum albumin (BSA, PAA, K05-013) in Dulbeccos PBS (Invitrogen, 14190185). Assay plates were incubated for 4 hours at room temperature followed by 18 hours at 4 degrees Celsius and time resolved fluorescence was read at 620 nm and 665 nm emission wavelengths using an EnVision plate reader (Perkin Elmer). Data were analysed by calculating the 665/620 nm ratio followed by the % Delta F values for each sample. The 665/620 nm ratio was used to correct for sample interference using Equation 1. The % Delta F for each sample was then calculated using Equation 2. The negative control (non-specific binding) was defined by replacing biotinylated human IL-33 combined with streptavidin cryptate detection with streptavidin cryptate detection only. The % Delta F values were subsequently used to calculate % specific binding as described in Equation 3. IC₅₀ values were determined using GraphPad Prism software by curve fitting using a four-parameter logistic equation (Equation 4).

In the next test the target is T5, Endogenous human IL-33 (human, UniProt O95760 1-270, limits assumed).
T5 sequence (looked up): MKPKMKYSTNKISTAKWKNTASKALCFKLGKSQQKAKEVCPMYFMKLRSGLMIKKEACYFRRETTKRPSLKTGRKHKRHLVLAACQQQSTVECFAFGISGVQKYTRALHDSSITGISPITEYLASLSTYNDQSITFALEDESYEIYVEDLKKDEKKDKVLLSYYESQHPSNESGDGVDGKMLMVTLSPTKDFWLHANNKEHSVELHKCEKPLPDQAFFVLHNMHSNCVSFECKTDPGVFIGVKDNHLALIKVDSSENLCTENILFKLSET
In words: cell-based or functional assay.

Test [7] concerns the target T6, Full-length human IL-33 (amino acids 1-270), HEK293-EBNA cell lysate (human, UniProt O95760 1-270).
T6 sequence (looked up): T5 sequence (looked up)
Nature of the test: cell-based or functional assay.

Test [8] deals with T1, Human IL-33 Flag®His. In words: SPR BIAcore 2000, IgG captured on Protein G', IL-33 as analyte, 1:1 Langmuir. As to the method: (§4) The binding affinity of purified IgG samples of exemplary binding members to human and cynomolgus IL-33 was determined by surface plasmon resonance using BIAcore 2000 biosensor (BIAcore AB) essentially as described by Karlsson et al., J Immunol Methods 145(1-2):229-40 (1991). In brief, Protein G′ (Sigma Aldrich, P4689) was covalently coupled to the surface of a CM5 sensor chip using standard amine coupling reagents according to manufacturer's instructions (BIAcore). The protein G′ surface was used to capture purified anti-IL-33 antibodies via the Fc domain to provide a surface density of approximately 290 RU per cycle. Human or cynomolgus IL-33 prepared in HBS-EP buffer (BIAcore AB), at a range of concentrations, between 600 nM and 18.75 nM, were passed over the sensor chip surface. The surface was regenerated using two 10 mM Glycine washes of pH 1.7 and pH 1.5 between each injection of antibody. The resulting sensorgrams were evaluated using BIA evaluation 3.1 software and fitted to a 1:1 Langmuir binding model, to provide relative binding data. The binding results (KD, Ka, and Kd) for antibodies IL330002 and IL330004 binding to human or cynomolgus IL-33 are shown in Table 8.
(In SPR one partner is held on a chip, and binding of the other changes the refractive index at the surface.)

Test [9] has as its target T2, Cynomolgus IL-33 Flag®His. The description is as above. As to the method:
as §4

Positions count from the first letter of the chain named.

B1: IL330071 IgG1 (antibody, V domains shown)
VH: EVQLVESGAEVKQPGASVKVSCKASGYTFTSYGISWVRQAPGQGLEWMGWISAYNGNTNYAQKLQGRVTMTTDTSTSTAYMELRSLRSDDTAVYYCARRGFYHDAFDIWGRGTTVTVSS
VL: AIQLTQSPSSLSASVGDRVTITCRASQGISNYLAWYQQKPGKVPKLLIYAASTLQSGVPSRFSGSGSGTEFTLTISSLQPDDFATYYCQQYNSYSVTFGQGTKVEIK
notes: Human IgG1, lambda constant
Usually IC50 stands for the concentration that gives 50% inhibition. As for B1, in the test with Human IL-33 Flag®His [1], the “IC50, human ST2 transfected HeLa NFkB luciferase reporter assay” value amounted to 226 nM. For the same molecule, the IC50 with Human IL-33 Flag®His [2] was found to be 59 nM; in [3], 375 nM.

B2: H338L293 IgG1 (as in Table 13) (antibody, V domains shown)
VH: EVQLLESGGGLVQPGGSLRLSCAASGFTFSSYAMSWVRQAPGKGLEWVSAISPREGWQYYADSVKGRFTISRDNSKNTLYLQMNSLRAEDTAVYYCVRVVAGYFDSWGRGTLVTVSS
VL: SYVLTQPPSVSVSPGQTARITCSGDALPKQYAHWYQQKPGQAPALVIYKDTERPSGIPERFSGSSSGTTVTLTISGVQAEDEADYYCMSSDPSGASRVFGGGTKVTVL
notes: IgG1
Regarding B2, in test [4], the “Huvec IL-6 production, maximum inhibition” value is roughly 70% and the “Mast cell IL-6 production, inhibition” value is 100%. Also, in test [5], the “IC50, Huvec IL-6 production” value turned out to be 1.9 nM and the “IC50, Mast cell IL-6 production” value was 1.7 nM. Moreover, the “IC50 (read off the curve)” value in test [6] is roughly 1 nM.

B3: IL330388 IgG1 (antibody, V domains shown)
VH: EVQLLESGGGLVQPGGSLRLSCAASGFTFSSYAMSWVRQAPGKGLEWVSASTPWQGSTYYADSVKGRFTISRDNSKNTLYLQMNSLRAEDTAVYYCVRWYWGWIDSWGRGTLVTVSS
VL: B2 VL
notes: IgG1; also called IL3300388
For the molecule B3, in test [4], the “Huvec IL-6 production, maximum inhibition” value was roughly 70% and the “Mast cell IL-6 production, inhibition” value turned out to be 100%. In addition, the “IC50 (read off the curve)” value in test [6] is roughly 1 nM.

B4: IL330396 IgG1 (antibody, V domains shown)
VH: B3 VH
VL: B2 VL with P92D, S93T
notes: IgG1; also called IL3300396
As to B4, in [4], the “Huvec IL-6 production, maximum inhibition” value was roughly 70% and the “Mast cell IL-6 production, inhibition” value worked out at 100%. Further, the “IC50 (read off the curve)” value in test [6] was roughly 1 nM.

B5: Mouse IL-33 Flag®His (ligand)
chain: SIQGTSLLTQSPASLSTYNDQSVSFVLENGCYVINVDDSGKDQEQDQVLLRYYESPCPASQSGDGVDGKKLMVNMSPIKDTDIWLHANDKDYSVELQRGDVSPPEQAFFVLHKKSSDFVSFECKNLPGTYIGVKDNQLALVEEKDESCNNIMFKLSKINPAFLYKVVGAADYKDDDDKAAHHHHHHHHHH
notes: C-terminal FLAG 10xHis tag, E. coli; also called Mature Mouse IL-33_FH; mouse IL-33 FH
For B5, the binding result with 33_640237-2B IgG1 is recorded as “no binding (tested: about 10^-5.5 M)”.

B6: Human ST2-Fc (R&D Systems, or source not stated in the example) (Fc fusion, UniProt Q01638 19-328, looked up, not shown: a dimerising Fc or GST)
chain: KFSKQSWGLENEALIVRCPRQGKPSYTVDWYYSQTNKSIPTQERNRVFASGQLLKFLPAAVADSGIYTCIVRSPTFNRTGYANVTIYKKQSDCNVPDYLMYSTVSGSEKNSKIYCPTIDLYNWTAPLEWFKNCQALQGSRYRAHKSFLVIDNVMTEDAGDYTCKFIHNENGANYSVTATRSFTVKDEQGFSLFPVIGAPAQNEIKEVEIGKNANLTCSACFGKGTQFLAAVLWQLNGTKITDFGEPRIQQEEGQNQSFSNGLACLDMVLRIADVKEEDLLLQYDCLALNLHGLRRHTVRLSRKNPIDHHS
Take B6: in the test with Endogenous human IL-33, the “IC50, Huvec IL-8 release stimulated by human lung lysate” value came to 0.019 nM. Moreover, the “IC50, Huvec IL-8 assay vs. full length IL-33 cell lysate” value in test [7] turned out to be 0.67 nM.

B7: IL330002 IgG1 (antibody, V domains shown)
VH: not shown
VL: SYELTQPPSLSVSPGQTASITCSGDKLGDKYVSWYQQKPGQSPILVIYHDNKRPSGIPERFSGSNSGNTATLTISGTQAMDEADYYCQAWDSNAGYVFGTGTKVTVL
notes: Human IgG1, lambda constant
Usually Kd stands for the equilibrium constant for the complex coming apart. A low value points to higher affinity. A word on the koff: it is the first-order rate constant of dissociation. The low end stands for a long-lived complex, the high end for a short-lived complex. The kon is the rate constant with which the complex forms. On to B7, for which the “IC50, human ST2 transfected HeLa NFkB luciferase reporter assay” value with Human IL-33 Flag®His [1] stood at 226 nM. In addition, the IC50 amounted to 27 nM with Human IL-33 Flag®His [2] and 42 nM in test [3]. For the same molecule, the results for the Kd (in the test with Human IL-33 Flag®His [8]; in test [9]) were 35 nM and 189 nM, respectively. For the same molecule, the koff in the test with Human IL-33 Flag®His [8] worked out at 0.00218 s⁻¹; in test [9], 0.00442 s⁻¹. Moreover, the kon with Human IL-33 Flag®His [8] is 61600 M⁻¹ s⁻¹; in [9], 23400 M⁻¹ s⁻¹.
